Results on one molecule are retold here after publication PMC3564530 (Molecular Biology of the Cell, 2013).

The test addresses recombinant his6-tagged linear penta-Ub (Ub5) (UniProt P0CG48). Kind of test: pull-down.

recombinant his6-tagged linear penta-Ub (Ub5), sequence (P0CG48 1-380): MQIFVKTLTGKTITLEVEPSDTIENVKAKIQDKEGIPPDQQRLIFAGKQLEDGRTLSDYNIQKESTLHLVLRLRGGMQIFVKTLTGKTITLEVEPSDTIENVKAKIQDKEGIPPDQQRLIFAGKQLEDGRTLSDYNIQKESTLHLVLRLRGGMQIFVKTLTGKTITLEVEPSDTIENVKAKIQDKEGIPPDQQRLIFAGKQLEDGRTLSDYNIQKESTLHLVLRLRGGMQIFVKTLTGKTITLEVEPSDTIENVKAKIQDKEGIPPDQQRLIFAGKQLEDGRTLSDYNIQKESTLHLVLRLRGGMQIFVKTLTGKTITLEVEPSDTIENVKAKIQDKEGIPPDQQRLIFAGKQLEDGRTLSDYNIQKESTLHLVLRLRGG

B1: recombinant purified GST-CIN exon 2 (domain or fragment)
chain: TGSLAAAVETASGRQALVVGKPSPYMFECITENFSIDPARTLMVGDRLETDILFGHRCGMTTVLTLTGVSRLEEAQAYLAAGQHDLVPHYYVESIADLTEGLED
Consider B1, for which the binding result was “binds”.
